Assay results reported in patent publication US20250353901A1 (ON TARGET MOLECULES BIOTECH, published 2025).

Target: T1, synthetic peptide HRCLQQLCCRKKPG
T1 construct: Variant of P2X7 residues 491-504, used as the counter-screen peptide; also called the wild type SNP at position 496 which is Q
T1 peptide: HRCLQQLCCRKKPG
Assay: in-vitro cross-reaction of hybridoma monoclonal antibodies against the synthetic peptide
Excerpt: For the generation of monoclonal antibodies, hybridoma cell lines expressing the desired antibody were produced. Techniques for the production of monoclonal antibodies are well known in the art. Animals were presented with the carboxyl-terminal antigen sequence […] conjugated to KHL. Murine hybridoma cells were produced and screened according to standard protocols. Monoclonal antibodies harvested after clonal selection of the hybridomas expressed from the variable regions of the monoclonal antibodies raised against the antigen, were tested for their capacity to bind this antigen.

- binding result: no binding
B1: Clone 3: 6H5.C10 Isotype Ig1 k (antibody, V domains shown)
VH: QVTLKESGPGILQPSQTLSLTCSFSGFSLSTFGMGVGWIRQPSGKGLEWLAHIWWDDYKYYNPALKSRLTISKDTSKNQVFLKIANVDTADTATYYCARISYYGSSYLDYWGQGTTLTVSS
VL: DVVMTQTPLSLPVSLGDQASISCRSSQSLVHSNGNTYLHWYLQKPGQSPKLLIYKVSNRFSGVPDRFSGSGSGTDFTLKISRVEAEDLGVYFCSQTTHVPYTFGGGTKLEIKR
notes: Murine hybridoma monoclonal antibody, isotype printed as 'Ig1 k'
